Assay results reported in the Human Domainome abundance scans (Beltran et al. 2025).

B1: Tesmin, residues 368 to 403; numbered along this chain, Q9Y4I5 (parent)
chain: KGCNCRRSGCLKNYCECYEAQIMCSSICKCIGCKNY

Variants of: B1
Test: abundance fitness (aPCA) (normalised: wild type 0, dead -1); higher = more abundant; growth selection in yeast, the domain comes from the species named
Details: Homo sapiens

Abundance fitness of substitutions, site by site:
C10: Y -0.439
L11: A 0.075 | C -0.567 | D -0.428 | E 0.05 | G -0.064 | H 0.297 | I -0.369 | K -0.025 | M 0.038 | N -0.243 | P -0.116 | Q 0.087 | R -0.344 | S -0.134 | T -0.079 | W -0.388 | Y -0.656
K12: A -0.05 | C -0.622 | E 0.031 | F -0.01 | G -0.079 | H -0.217 | I -0.405 | L -0.316 | M -0.323 | N -0.46 | P -0.077 | Q -0.076 | R -0.359 | S -0.181 | T -0.201 | V -0.014 | W -0.643 | Y -0.831
N13: C -0.558 | D -0.092 | E -0.061 | F -0.613 | G -0.045 | H -0.871 | I -0.398 | K -0.075 | L -0.266 | M -0.556 | P -0.258 | Q -0.061 | R -0.218 | S -0.181 | T -0.297 | V -0.619 | W -0.755 | Y -0.51
Y14: A -0.253 | C 0.14 | D 0.171 | E 0.013 | G 0.096 | I -0.09 | K -0.02 | M 0.153 | N 0.267 | P 0.145 | Q 0.007 | R 0.01 | S 0.047 | T -0.222 | V -0.082 | W -0.01
C15: A -0.394 | D -0.04 | E -0.076 | F -0.742 | G -0.305 | H -0.425 | I -0.809 | K -0.295 | L -0.713 | M -0.689 | P -0.259 | Q -0.282 | R -0.378 | S -0.596 | T -0.382 | V -0.65 | W -0.993 | Y -0.658
E16: A -0.256 | C -0.677 | D -0.522 | F -0.453 | G -0.086 | H -0.418 | K -0.502 | L -0.441 | M -0.218 | N -0.763 | P -0.327 | Q -0.034 | R -0.341 | S -0.57 | T -0.39 | V -0.329 | W -0.466 | Y -0.577
C17: A -0.36 | E -0.465 | K -0.337 | L -0.288 | M -0.575 | P -0.312 | Q -0.205 | R -0.444 | T -0.689 | V -0.415 | Y -0.72
Y18: A -0.03 | C -0.106 | D -0.088 | E 0.058 | F -0.089 | G 0.034 | H -0.016 | I -0.318 | L -0.353 | M 0.098 | N 0.083 | P -0.066 | Q 0.107 | R -0.153 | S -0.059 | T -0.082 | V -0.27 | W -0.047
E19: A -0.107 | C -0.132 | D -0.243 | F -0.31 | G -0.043 | K -0.1 | L -0.281 | M -0.18 | N -0.351 | P -0.284 | Q -0.131 | R -0.188 | S -0.226 | T -0.308 | V -0.201
A20: C -0.442 | E -0.082 | G 0.065 | I -0.696 | K -0.337 | L -0.199 | M -0.317 | P -0.292 | Q -0.095 | R -0.038 | S -0.049 | T -0.196 | V -0.202 | W -0.295 | Y -0.367
Q21: A -0.127 | C -0.235 | D -0.566 | E 0.155 | G -0.004 | H -0.271 | K -0.065 | L -0.26 | M -0.48 | N -0.124 | P -0.073 | R 0.061 | T -0.08 | V -0.472 | W -0.508
I22: A 0.004 | C -0.55 | E 0.004 | F -0.088 | G 0.268 | K -0.093 | L -0.073 | M -0.423 | N 0.551 | P -0.043 | Q 0.329 | R 0.021 | S -0.066 | T 0.109 | V 0.048 | W -0.365
M23: A -0.18 | D 0.152 | E 0.106 | G 0.127 | H -0.198 | K -0.057 | L -0.462 | P -0.136 | Q -0.016 | R -0.075 | S -0.081 | T -0.419 | V -0.1 | W -0.283
C24: A -0.15 | D -0.107 | E 0.051 | G -0.008 | K 0.262 | L -0.402 | M -0.378 | P -0.21 | Q -0.072 | S -0.201 | T -0.294 | V -0.421 | W -0.647
S25: A -0.051 | C -0.393 | D -0.334 | E -0.315 | F -0.711 | G 0.093 | H -0.269 | K -0.196 | L -0.415 | M -0.324 | P -0.521 | T -0.168 | V -0.509 | W -0.45
S26: A 0.05 | C -0.98 | D -0.101 | E 0.228 | F -0.651 | G 0.089 | K 0.032 | L -0.559 | M -0.384 | N -0.079 | P -0.624 | Q 0.091 | R -0.241 | T -0.095 | V -0.159 | W -1.91
I27: A 0.162 | C -1.72 | D 0.119 | E 0.207 | K 0.153 | L -0.089 | M -0.014 | N 0.04 | P 0.118 | Q 0.176 | R 0.085 | S 0.009 | T 0.159 | V 0.112 | W -0.703 | Y -0.431
C28: A -0.248 | D -0.3 | E -0.157 | G -0.219 | K -0.377 | L -0.738 | M -0.411 | P -0.195 | Q -0.564 | R -0.575 | S -0.169 | T -0.14 | V -0.42 | W -0.7 | Y -0.973
K29: C -0.048 | D 0.171 | E 0.238 | G 0.24 | H 0.419 | I -0.334 | M -0.016 | N 0.054 | P -0.091 | Q 0.18 | R 0.034 | S 0.051 | T 0.024 | V 0.011 | W -0.186
C30: A -0.252 | E -0.226 | G -0.29 | H -0.498 | I -0.945 | K -0.249 | L -1 | M -1.15 | P -0.209 | Q -0.196 | R -0.425 | S -0.355 | T -0.468 | V -0.352
I31: A 0.309 | C -0.02 | E 0.311 | F -0.171 | G 0.15 | K -0.108 | L -0.021 | M 0.081 | N 0.083 | P 0.047 | Q 0.114 | R 0.056 | S 0.147 | T 0.211 | V 0.125 | W -0.099 | Y -0.322
G32: A -0.196 | C -0.592 | D -0.454 | E -0.033
